Data as given in patent US20250152742A1, “COMPOSITIONS AND METHODS FOR NEUROLOGICAL DISEASES” (Trames Bio, Inc., priority 2022, published 2025).

Tested on: engineered chimeric receptor SEQ ID NO: 33 and its mutants (human α7-nAChR ligand binding domain / human GlyRα1 ion pore domain) in Lenti-X 293T cells
Assay: YFP fluorescence quenching anion reporter plate reader assay (percent quench, EC50)
Type: cell-based
Conditions: for YFP fluorescence quenching using CNL001 (percent quench): receptor named in row; for YFP fluorescence quenching using Varenicline, 3 nM var: ligand Varenicline 3 nM; for YFP fluorescence quenching using Varenicline, 30 nM var: ligand Varenicline 30 nM; for YFP fluorescence quenching using Varenicline, 300 nM var: ligand Varenicline 300 nM; for YFP fluorescence quenching using Varenicline, 500 nM var: ligand Varenicline 500 nM; for YFP fluorescence quenching using Varenicline, 1 uM var: ligand Varenicline 1 uM
In short: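 Lenti-X 293T cells co-expressing an anion-quenchable YFP were transiently transfected with receptor DNA, then ligand was added in NaI-substituted buffer (pH 7.2) after 30 min at 37 °C. Fluorescence was read about 2 min; percent quench = mean of last 10 s over 15 s pre-ligand baseline.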

B1: CODA405: engineered receptor: Y210V in SEQ ID NO: 33 (protein)
chain: MRCSPGGVWLALAASLLHVSLQGEFQRKLYKELVKNYNPLERPVANDSQPLTVYFSLSLLQIMDVDEKNQVLTTNIWLQMSWTDHYLQWNVSEYPGVKTVRFPDGQIWKPDILLYNSADERFDATFHTNVLVNSSGHCQYLPPGIFKSSCPMDLKNFPMDVQTCKLKFGSWSYGGWSLDLQMQEADISGYIPNGEWDLVGIPGKRSERFVECCKEPYPDVTFTVTMRRRMGYYLIQMYIPSLLIVILSWISFWINMDAAPARVGLGITTVLTMTTQSSGSRASLPKVSYVKAIDIWMAVCLLFVFSALLEYAAVNFVSRQHKELLRFRRKRRHHKSPMLNLFQEDEAGEGRFNFSAYGMGPACLQAKDGISVKGANNSNTTNPPPAPSKSPEEMRKLFIQRAKKIDKISRIGFPMAFLIFNMFYWIIYKIVRREDVHNQ
modifications: synthetic sequence of chimeric LGIC
B1 was tested, and the “YFP fluorescence quenching using CNL001 (percent quench)” value (1 nM CNL001, first column so headed) was −16.246%, the “YFP fluorescence quenching using CNL001 (percent quench)” value (1 nM CNL001, second column so headed) was −4.217% and the “YFP fluorescence quenching using TC-5619/Bradanicline (percent quench)” value (3 nM brd (TC-5619/Bradanicline)) was 9.92%. The “YFP fluorescence quenching using CNL001 (percent quench)” value (10 nM CNL001, first column so headed) was −6.142%, the “YFP fluorescence quenching using CNL001 (percent quench)” value (10 nM CNL001, second column so headed) was −10.003% and the “YFP fluorescence quenching using TC-5619/Bradanicline (percent quench)” value (30 nM brd (TC-5619/Bradanicline)) was 4.37%. The “YFP fluorescence quenching using CNL001 (percent quench)” value (50 nM CNL001, first column so headed) was −11.054%, the “YFP fluorescence quenching using CNL001 (percent quench)” value (50 nM CNL001, second column so headed) was −10.06% and the “YFP fluorescence quenching using ABT-126 (percent quench)” value (50 nM abt (ABT-126)) was −2.9%. For the same molecule, the “YFP fluorescence quenching using CNL001 (percent quench)” value (100 nM CNL001, first column so headed) was −3.832%, the “YFP fluorescence quenching using CNL001 (percent quench)” value (100 nM CNL001, second column so headed) was −3.784% and the “YFP fluorescence quenching (percent quench)” value (100 nM CNL002) was −14.3%. The “YFP fluorescence quenching using ABT-126 (percent quench)” value (100 nM abt (ABT-126)) was −2.06%, the “YFP fluorescence quenching using AZD-0328 (percent quench)” value (100 nM azd0328) was −8.13% and the “YFP fluorescence quenching using ABT-126 (percent quench)” value (300 nM abt (ABT-126)) was −0.19%. For the same molecule, the “YFP fluorescence quenching using AZD-0328 (percent quench)” value (300 nM azd0328) was −3.35%, the “YFP fluorescence quenching using TC-5619/Bradanicline (percent quench)” value (300 nM brd (TC-5619/Bradanicline)) was 59% and the “YFP fluorescence quenching using CNL001 (percent quench)” value (1 uM CNL001, first column so headed) was 1.129%. The “YFP fluorescence quenching using CNL001 (percent quench)” value (1 uM CNL001, second column so headed) was 7.1%, the “YFP fluorescence quenching (percent quench)” value (1 uM CNL002) was −7.56% and the “YFP fluorescence quenching using ABT-126 (percent quench)” value (1 uM abt (ABT-126)) was −3.64%. The “YFP fluorescence quenching (percent quench)” value (10 uM ach (acetylcholine)) was −6.31%, the “YFP fluorescence quenching (percent quench)” value (30 uM CNL002) was −2.02% and the “YFP fluorescence quenching using AZD-0328 (percent quench)” value (30 uM azd0328) was −2.86%. For the same molecule, the “YFP fluorescence quenching (percent quench)” value (100 uM ach (acetylcholine)) was −14.48%, the “YFP fluorescence quenching (percent quench)” value (1 mM ach (acetylcholine)) was −2.82% and the “YFP fluorescence quenching (percent quench)” value (3 mM ach (acetylcholine)) was 1.06%. The “YFP fluorescence quenching using Facinicline, 30 nM fac” value (ligand Facinicline 30 nM) was −26.25, the “YFP fluorescence quenching using Facinicline, 300 nM fac” value (ligand Facinicline 300 nM) was −23.52 and the “YFP fluorescence quenching using Facinicline, 30 uM fac” value (ligand Facinicline 30 uM) was 0.83. For the same molecule, the “YFP fluorescence quenching using TC-6987, 1 uM tc6987” value (ligand TC-6987 1 uM) was −22.63, the “YFP fluorescence quenching using TC-6987, 10 uM tc6987” value (ligand TC-6987 10 uM) was −23.03 and the “YFP fluorescence quenching using TC-6987, 500 uM tc6987” value (ligand TC-6987 500 uM) was −40.88. For the same molecule, the “YFP fluorescence quenching using Varenicline, 3 nM var” value (first column) was 7.317, the “YFP fluorescence quenching using Varenicline, 3 nM var” value (second column) was 7.643 and the “YFP fluorescence quenching using Varenicline, 30 nM var” value (first column) was 9.457. The “YFP fluorescence quenching using Varenicline, 30 nM var” value (second column) was 9.134, the “YFP fluorescence quenching using Varenicline, 300 nM var” value (first column) was 15.503 and the “YFP fluorescence quenching using Varenicline, 300 nM var” value (second column) was 11.954. For the same molecule, the “YFP fluorescence quenching using Varenicline, 500 nM var” value (first column) was 13.427, the “YFP fluorescence quenching using Varenicline, 500 nM var” value (second column) was 10.784 and the “YFP fluorescence quenching using Varenicline, 1 uM var” value (first column) was 9.032. The “YFP fluorescence quenching using Varenicline, 1 uM var” value (second column) was 11.591.
